Results taken from article PMC5264654.

Columns and labels:
[1] = molecular target: GST-Fen1 PIP box fusion (UniProt P39748); assay: SPR; ~1000 RU GST-PIP fusion bound to a CM5 chip (acetate pH 5.5), GST as control lane; His-S-PCNA as analyte, 10 point 2x dilution series from 12 μM; equilibrium of binding, steady state affinity fit; HBS-EP (0.01 M HEPES pH 7.4, 0.15 M NaCl, 3 mM EDTA, 0.0005% IGEPAL) with 1 g/l BSA; Biacore T200
[2] = molecular target: GST-p21 PIP box fusion (UniProt P38936); assay: as above
[3] = molecular target: '3tag' PCNA^S228I (human) (UniProt P12004); assay: SPR; reverse orientation: ~1000 RU biotinylated 3tag-PCNA on an SA chip; GST-PIP fusion as analyte, single cycle kinetics (Cdt1 highest 44.5 μM, p21 highest 27.9 μM); HBS-EP with 1 g/l BSA

Chain of UniProt P39748 (P39748 whole entry, the tested form may be a part): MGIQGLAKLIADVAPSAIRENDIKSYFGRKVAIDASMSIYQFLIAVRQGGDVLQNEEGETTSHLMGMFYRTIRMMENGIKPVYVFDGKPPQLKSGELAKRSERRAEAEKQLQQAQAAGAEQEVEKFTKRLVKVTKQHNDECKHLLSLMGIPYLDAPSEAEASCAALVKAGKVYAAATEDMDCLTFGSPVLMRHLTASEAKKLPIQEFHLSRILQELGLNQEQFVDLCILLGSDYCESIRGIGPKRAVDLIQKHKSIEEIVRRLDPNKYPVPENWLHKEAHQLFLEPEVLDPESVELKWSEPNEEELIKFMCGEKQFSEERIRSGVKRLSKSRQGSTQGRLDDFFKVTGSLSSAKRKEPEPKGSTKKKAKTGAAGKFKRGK
Chain of UniProt P38936 (P38936 whole entry, the tested form may be a part): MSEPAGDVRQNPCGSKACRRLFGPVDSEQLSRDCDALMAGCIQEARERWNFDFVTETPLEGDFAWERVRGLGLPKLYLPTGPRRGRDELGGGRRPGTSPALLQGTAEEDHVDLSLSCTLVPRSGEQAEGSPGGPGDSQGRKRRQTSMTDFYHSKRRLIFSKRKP

Kd [1] [µM] | Kd [2] [µM] | reduction of the affinity against PCNA^WT [3] [%] | Substance
1.1 | 1.8 | – | His-S-tagged PCNA^WT (from UniProt P12004 1-261) (natural protein)
15 | 3.7 | – | His-S-tagged PCNA^S228I (from UniProt P12004 1-258) (natural protein)
– | – | 10 | GST-p21 PIP box fusion (from UniProt P38936 1-164) (domain or fragment)
